Test results from US10174097B2, “Specific A-beta species-binding peptides for the therapy and/or diagnosis of Alzheimer's dementia” (Forschungszentrum Juelich GmbH, priority 2015, dated 2019).
[ ]: non-standard residue; d: D form. d(hArg) = N=C(N)NCCCC[C@@H](N)C(=O)O; dPhg = N[C@@H](C(=O)O)c1ccccc1

How the values were obtained:
[1] = biological target: T1, Abeta oligomers (Homo sapiens, UniProt P05067); assay: Peptide microarray, binding of FITC Abeta oligomers to immobilized peptides; settings: 1 hour at room temperature, control subtracted, averaged
T1 sequence (P05067 672-713 limits assumed): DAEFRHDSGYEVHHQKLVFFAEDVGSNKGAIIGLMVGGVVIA
Description: (§1) The procedure for identifying peptides that bind specifically to amyloid beta monomer or specifically to amyloid beta oligomers and for determining the binding specificity of peptides within the meaning of the present invention can thus be as follows. Peptide microarrays comprising various peptides immobilized on a surface, such as derivatives of D3, are each incubated with different species of Abeta (such as monomers, oligomers and fibrils) labeled with a fluorescent dye. A peptide microarray is incubated with only the fluorescent dye to serve as the control. So as to ensure the reproducibility of the results, the incubation of the peptide microarrays can be carried out at least three times for each species. The binding of the fluorescence-labeled Abeta to the immobilized peptides is detected by way of the fluorescent dye. The more Abeta binds to the peptide, the higher the fluorescence signal is. The measured fluorescence signals of the reproductions are standardized, and the […]. This avoids binding of the fluorescence-labeled Abeta via the dye. The binding signals of an Abeta species to a peptide are then averaged. So as to determine the binding specificity, the quotient of the species to which the peptide is to specifically bind and another species is found.
(§2) Pretreatment of the peptide microarray slides: • briefly dip 3× in ethanol (96%) and then wash with H2O (30 minutes) • briefly dry by way of centrifuging
(§3) Preparation of monomers and oligomers: • size exclusion chromatography according to Johansson et al. 2006 (Johansson, A.-S. et al. Physiochemical characterization of the Alzheimer's disease-related peptides Aβ1-42Arctic and Aβ1-42 wt. FEBS Journal 273, 2618-2630 (2006)). • oligomers were fractionated at 8-9 ml, monomers at 16-17 ml.
(§4) Carrying out the peptide microarray: • incubate with FITC Abeta monomers, oligomers, fibrils and FITC for 1 hour at room temperature • wash: TBS-T briefly 3× (only TBS-T buffer is replaced), 3×10 minutes in a flacon, 3×H2O, 3×10 minutes • dry by way of centrifugation • The binding of the fluorescence-labeled Abeta to the immobilized peptides is detected by way of the fluorescent dye using the microarray reader FLA800 from Fuji Film. The more Abeta binds to the peptide, the higher is the fluorescence signal. • carrier set mode: slides • resolution: 10 μm • scan mode: high sensitivity (slow): scan pixel at 200 mm/s • laser: 473 nm • filter: 530 DF 20 • photomultiplier tube (PMT) HV (%): 100 • images were stored as .tif files
(§5) The software, AIDA Metrix, from Raytest was used to evaluate the fluorescence signals:
(§6) To ensure the reproducibility of the results, the incubation of the peptide microarrays is carried out at least three times for each species.
(§7) The measured fluorescence signals of the reproductions are standardized using a median-based standardization, and the control was subtracted from the signal. This avoided the binding of the fluorescence-labeled Abeta via the dye.
(§8) The binding signals of an Abeta species to a peptide were averaged.

[2] = biological target: T2, Abeta monomers (Homo sapiens, UniProt P05067); assay: Peptide microarray, binding of FITC Abeta monomers to immobilized peptides; settings: for Binding signal to Abeta monomers: peptide microarray, FITC Abeta, 1 hour at room temperature, control subtracted, averaged; for Binding specificity monomer to fibrils: quotient binding signal to monomers / binding signal to fibrils; for Binding specificity monomer to oligomer: quotient binding signal to monomers / binding signal to oligomers
T2 construct: incubate with FITC Abeta monomers, oligomers, fibrils and FITC for 1 hour at room temperature
T2 sequence (P05067 672-713 limits assumed): as above
Description: as §1, §2, §3, §4, §5, §6, §7, §8
So as to determine the binding specificity, the quotient of the species to which the peptide is to specifically bind and another species is created.
Example: binding specificity of peptide X to Abeta monomers=binding signal of peptides X to monomers/binding signal of peptides X to oligomers.

[3] = biological target: T3, Abeta fibrils (Homo sapiens, UniProt P05067); assay: Peptide microarray, binding of FITC Abeta fibrils to immobilized peptides; settings: 1 hour at room temperature, control subtracted, averaged
T3 construct: Pre-incubated Abeta was co-incubated with the peptides
T3 sequence (P05067 672-713 limits assumed): as above
Description: as §1, §2
Preparation of fibrils: • incubate Abeta over 3 days, centrifuge, discard supernatant and resuspend in buffer (repeat 3 times)
as §4, §5, §6, §7, §8

[4] = biological target: T3, Abeta fibrils; assay: ThT assay, formation of ThT positive Abeta fibrils; assay type: biochemical; settings: 48 hours, co-incubation with Abeta, FIG. 3
[5] = biological target: T1, Abeta oligomers; assay: QIAD method, elimination of Abeta oligomers (density gradient centrifugation, RP-HPLC); assay type: biochemical; settings: ratio of Abeta to peptide of 8:1, fractions 4-6, FIG. 2
Description: Using the QIAD method for the quantitative characterization of amyloid peptides and/or proteins in a sample, it was possible to quantify the properties of the substances. Pre-incubated Abeta was co-incubated with the peptides. The different Abeta species were separated by way of density gradient centrifugation and quantified in the individual fractions by way of RP-HPLC Abeta. The elimination of the Abeta oligomers in fractions 4-6 was analyzed.

Row | Substance | Binding signal to Abeta oligomers [1] | Binding signal to Abeta monomers [2] | Binding specificity monomer to fibrils [2] | Binding specificity monomer to oligomer [2] | Binding signal to Abeta fibrils [3] | ThT fluorescence during the entire measuring time period [4] | Elimination of Abeta oligomers [5]
1 | rkr07rlvtkrnr (H-[dR][dK][dR][d(hArg)][dR][dL][dV][dT][dK][dR][dN][dR]-NH2; SMILES CC(C)C[C@@H](NC(=O)[C@@H](CCCNC(=N)N)NC(=O)[C@@H](CCCCNC(=N)N)NC(=O)[C@@H](CCCNC(=N)N)NC(=O)[C@@H](CCCCN)NC(=O)[C@H](N)CCCNC(=N)N)C(=O)N[C@@H](C(=O)N[C@@H](C(=O)N[C@H](CCCCN)C(=O)N[C@H](CCCNC(=N)N)C(=O)N[C@H](CC(N)=O)C(=O)N[C@H](CCCNC(=N)N)C(N)=O)[C@H](C)O)C(C)C) [ANK16, D3 derivative; 07: D-Homoarginine] | 1.4 rfu | 11.9 rfu | 8.1 | 8.6 | 1.5 rfu |  | 
2 | rkrirl06yhikr (H-[dR][dK][dR][dI][dR][dL][dPhg][dY][dH][dI][dK][dR]-NH2; SMILES CC[C@@H](C)[C@@H](NC(=O)[C@@H](Cc1c[nH]cn1)NC(=O)[C@@H](Cc1ccc(O)cc1)NC(=O)[C@H](NC(=O)[C@@H](CC(C)C)NC(=O)[C@@H](CCCNC(=N)N)NC(=O)[C@H](NC(=O)[C@@H](CCCNC(=N)N)NC(=O)[C@@H](CCCCN)NC(=O)[C@H](N)CCCNC(=N)N)[C@H](C)CC)c1ccccc1)C(=O)N[C@H](CCCCN)C(=O)N[C@H](CCCNC(=N)N)C(N)=O) [ANK17, D3 derivative; 06: Phenylglycine (D)] | 1.0 rfu | 4.7 rfu | 2.5 | 4.8 | 1.9 rfu |  | 
3 | rkrirl06yhinr (H-[dR][dK][dR][dI][dR][dL][dPhg][dY][dH][dI][dN][dR]-NH2; SMILES CC[C@@H](C)[C@@H](NC(=O)[C@@H](Cc1c[nH]cn1)NC(=O)[C@@H](Cc1ccc(O)cc1)NC(=O)[C@H](NC(=O)[C@@H](CC(C)C)NC(=O)[C@@H](CCCNC(=N)N)NC(=O)[C@H](NC(=O)[C@@H](CCCNC(=N)N)NC(=O)[C@@H](CCCCN)NC(=O)[C@H](N)CCCNC(=N)N)[C@H](C)CC)c1ccccc1)C(=O)N[C@H](CC(N)=O)C(=O)N[C@H](CCCNC(=N)N)C(N)=O) [ANK2, D3 derivative; 06: Phenylglycine (D)] | 1.6 rfu | 5.6 rfu | 7.1 | 3.4 | 0.8 rfu | remains at the level of the first measured value | 54±7%
4 | rkrirl06yhwnr (H-[dR][dK][dR][dI][dR][dL][dPhg][dY][dH][dW][dN][dR]-NH2; SMILES CC[C@@H](C)[C@@H](NC(=O)[C@@H](CCCNC(=N)N)NC(=O)[C@@H](CCCCN)NC(=O)[C@H](N)CCCNC(=N)N)C(=O)N[C@H](CCCNC(=N)N)C(=O)N[C@H](CC(C)C)C(=O)N[C@@H](C(=O)N[C@H](Cc1ccc(O)cc1)C(=O)N[C@H](Cc1c[nH]cn1)C(=O)N[C@H](Cc1c[nH]c2ccccc12)C(=O)N[C@H](CC(N)=O)C(=O)N[C@H](CCCNC(=N)N)C(N)=O)c1ccccc1) [ANK3, D3 derivative; 06: Phenylglycine (D)] | 0.6 rfu | 3.6 rfu | 21.9 | 6.5 | 0.2 rfu | remains at the level of the first measured value | 62±10%
5 | rkrirlvyhinr (H-[dR][dK][dR][dI][dR][dL][dV][dY][dH][dI][dN][dR]-NH2; SMILES CC[C@@H](C)[C@@H](NC(=O)[C@@H](Cc1c[nH]cn1)NC(=O)[C@@H](Cc1ccc(O)cc1)NC(=O)[C@H](NC(=O)[C@@H](CC(C)C)NC(=O)[C@@H](CCCNC(=N)N)NC(=O)[C@H](NC(=O)[C@@H](CCCNC(=N)N)NC(=O)[C@@H](CCCCN)NC(=O)[C@H](N)CCCNC(=N)N)[C@H](C)CC)C(C)C)C(=O)N[C@H](CC(N)=O)C(=O)N[C@H](CCCNC(=N)N)C(N)=O) [ANK1, D-enantiomeric 12-mer peptide derived from D3] | 1.9 rfu | 6.6 rfu | 5.1 | 3.5 | 1.3 rfu | remains at the level of the first measured value | 51±6%
6 | rpr07rlhtkkkr (H-[dR][dP][dR][d(hArg)][dR][dL][dH][dT][dK][dK][dK][dR]-NH2; SMILES CC(C)C[C@@H](NC(=O)[C@@H](CCCNC(=N)N)NC(=O)[C@@H](CCCCNC(=N)N)NC(=O)[C@@H](CCCNC(=N)N)NC(=O)[C@H]1CCCN1C(=O)[C@H](N)CCCNC(=N)N)C(=O)N[C@H](Cc1c[nH]cn1)C(=O)N[C@@H](C(=O)N[C@H](CCCCN)C(=O)N[C@H](CCCCN)C(=O)N[C@H](CCCCN)C(=O)N[C@H](CCCNC(=N)N)C(N)=O)[C@H](C)O) [ANK18, D3 derivative; 07: D-Homoarginine] | 0.2 rfu | 1.2 rfu | 9.4 | 7.0 | 0.1 rfu |  | 
7 | rprvrl06yhwnr (H-[dR][dP][dR][dV][dR][dL][dPhg][dY][dH][dW][dN][dR]-NH2; SMILES CC(C)C[C@@H](NC(=O)[C@@H](CCCNC(=N)N)NC(=O)[C@H](NC(=O)[C@@H](CCCNC(=N)N)NC(=O)[C@H]1CCCN1C(=O)[C@H](N)CCCNC(=N)N)C(C)C)C(=O)N[C@@H](C(=O)N[C@H](Cc1ccc(O)cc1)C(=O)N[C@H](Cc1c[nH]cn1)C(=O)N[C@H](Cc1c[nH]c2ccccc12)C(=O)N[C@H](CC(N)=O)C(=O)N[C@H](CCCNC(=N)N)C(N)=O)c1ccccc1) [ANK15, D3 derivative; 06: Phenylglycine (D)] | 0.6 rfu | 1.3 rfu | 12.2 | 2.2 | 0.1 rfu |  | 
